# Laboratory results published in patent US20070196883.
# T1: D978A-Region B peptide
# T1 chain: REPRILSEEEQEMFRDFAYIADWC
# T2: Region B peptide (24 residue synthetic peptide corresponding to Region B of PIF)
# T2 chain: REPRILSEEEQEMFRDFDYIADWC
# B1: endogenous PDK1 of 293 cells (protein)
# chain: MARTTSQLYDAVPIQSSVVLCSCPSPSMVRTQTESSTPPGIPGGSRQGPAMDGTAAEPRPGAGSLQHAQPPPQPRKKRPEDFKFGKILGEGSFSTVVLARELATSREYAIKILEKRHIIKENKVPYVTRERDVMSRLDHPFFVKLYFTFQDDEKLYFGLSYAKNGELLKYIRKIGSFDETCTRFYTAEIVSALEYLHGKGIIHRDLKPENILLNEDMHIQITDFGTAKVLSPESKQARANSFVGTAQYVSPELLTEKSACKSSDLWALGCIIYQLVAGLPPFRAGNEYLIFQKIIKLEYDFPEKFFPKARDLVEKLLVLDATKRLGCEEMEGYGPLKAHPFFESVTWENLHQQTPPKLTAYLPAMSEDDEDCYGNYDNLLSQFGCMQVSSSSSSHSLSASDTGLPQRSGSNIEQYIHDLDSNSFELDLQFSEDEKRLLLEKQAGGNPWHQFVENNLILKMGPVDKRKGLFARRRQLLLTEGPHLYYVDPVNKVLKGEIPWSQELRPEAKNFKTFFVHTPNRTYYLMDPSGNAHKWCRKIQEVWRQRYQSHPDAAVQ
# B2: His-PDK1 (Myc-PDK1 with an N-terminal hexahistidine sequence, from Sf21 insect cells) (protein)
# chain: MARTTSQLYDAVPIQSSVVLCSCPSPSMVRTQTESSTPPGIPGGSRQGPAMDGTAAEPRPGAGSLQHAQPPPQPRKKRPEDFKFGKILGEGSFSTVVLARELATSREYAIKILEKRHIIKENKVPYVTRERDVMSRLDHPFFVKLYFTFQDDEKLYFGLSYAKNGELLKYIRKIGSFDETCTRFYTAEIVSALEYLHGKGIIHRDLKPENILLNEDMHIQITDFGTAKVLSPESKQARANSFVGTAQYVSPELLTEKSACKSSDLWALGCIIYQLVAGLPPFRAGNEYLIFQKIIKLEYDFPEKFFPKARDLVEKLLVLDATKRLGCEEMEGYGPLKAHPFFESVTWENLHQQTPPKLTAYLPAMSEDDEDCYGNYDNLLSQFGCMQVSSSSSSHSLSASDTGLPQRSGSNIEQYIHDLDSNSFELDLQFSEDEKRLLLEKQAGGNPWHQFVENNLILKMGPVDKRKGLFARRRQLLLTEGPHLYYVDPVNKVLKGEIPWSQELRPEAKNFKTFFVHTPNRTYYLMDPSGNAHKWCRKIQEVWRQRYQSHPDAAVQ
# B3: wild type GST-PDK1 (protein)
# chain: MARTTSQLYDAVPIQSSVVLCSCPSPSMVRTQTESSTPPGIPGGSRQGPAMDGTAAEPRPGAGSLQHAQPPPQPRKKRPEDFKFGKILGEGSFSTVVLARELATSREYAIKILEKRHIIKENKVPYVTRERDVMSRLDHPFFVKLYFTFQDDEKLYFGLSYAKNGELLKYIRKIGSFDETCTRFYTAEIVSALEYLHGKGIIHRDLKPENILLNEDMHIQITDFGTAKVLSPESKQARANSFVGTAQYVSPELLTEKSACKSSDLWALGCIIYQLVAGLPPFRAGNEYLIFQKIIKLEYDFPEKFFPKARDLVEKLLVLDATKRLGCEEMEGYGPLKAHPFFESVTWENLHQQTPPKLTAYLPAMSEDDEDCYGNYDNLLSQFGCMQVSSSSSSHSLSASDTGLPQRSGSNIEQYIHDLDSNSFELDLQFSEDEKRLLLEKQAGGNPWHQFVENNLILKMGPVDKRKGLFARRRQLLLTEGPHLYYVDPVNKVLKGEIPWSQELRPEAKNFKTFFVHTPNRTYYLMDPSGNAHKWCRKIQEVWRQRYQSHPDAAVQ
# Tests used:
# [1] = target: GST-PIF (glutathione-S-transferase fusion of the C-terminal 77 amino acids of PRK2)
# [2] = target: GST-PIF mutant F977 to Ala
# [3] = target: GST-PIF mutant Asp978 to Ala
# [4] = target: GST-PIF mutant F974 to Ala
# [5] = target: GST-PIF mutant Asp978 to Ser
# [6] = target: GST-PIF mutant Y979 to Ala
# D978A-Region B peptide = target: T1, D978A-Region B peptide
# [7] = target: T2, Region B peptide (24 residue synthetic …)
# Sequence of GST-PIF mutant F977 to Ala (chain, as listed by the source mutant): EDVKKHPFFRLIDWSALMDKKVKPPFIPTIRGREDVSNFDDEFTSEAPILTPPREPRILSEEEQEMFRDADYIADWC
# Sequence of GST-PIF mutant Asp978 to Ser (chain, as listed by the source mutant): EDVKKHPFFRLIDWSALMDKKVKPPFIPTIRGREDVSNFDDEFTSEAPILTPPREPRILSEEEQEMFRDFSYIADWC
# Sequence of GST-PIF mutant F974 to Ala (chain, as listed by the source mutant): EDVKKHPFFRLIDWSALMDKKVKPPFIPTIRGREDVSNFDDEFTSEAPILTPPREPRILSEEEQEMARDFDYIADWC
# Sequence of GST-PIF mutant Y979 to Ala (chain, as listed by the source mutant): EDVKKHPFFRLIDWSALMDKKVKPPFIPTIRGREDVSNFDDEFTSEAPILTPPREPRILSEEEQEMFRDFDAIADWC
protein,measurement,setting,value
B1,activation of GST-S473D-PKBα (Thr308 phosphorylation) by PDK1 associated with GST-PIF (0.5 µg),[1],greatly activated a GST-A473D-PKBα mutant
same,phosphorylation of PKBα at Ser473 (P-473 immunoblot),[2],prevented the phosphorylation of PKBα at Ser473
same,phosphorylation of PKBα at Ser473 (P-473 immunoblot),[3],prevented the phosphorylation of PKBα at Ser473
same,phosphorylation of PKBα at Ser473 (P-473 immunoblot),[4],prevented the phosphorylation of PKBα at Ser473
same,phosphorylation of PKBα at Ser473 (P-473 immunoblot),[5],prevented the phosphorylation of PKBα at Ser473
same,phosphorylation of PKBα at Ser473 (P-473 immunoblot),[6],prevented the phosphorylation of PKBα at Ser473
B2,"phosphorylation of PKBα at Ser473 (P-473 immunoblot, 32P peptide mapping)",D978A-Region B peptide,far less effective at inducing this alteration in the specificity of PDK1
B3,phosphorylation of PKBα at Ser473,[7],"The region B peptide converts the wild type GST-PDK1, but not the kinase dead GST-PDK1, into a kinase which can phosphorylate Ser473 (data not shown)"
